Reference: PMC8081927 (The Journal of Biological Chemistry, 2021)
Several values for one entry are separate records, joined by “and”; a condition that tells them apart may be missing. Identical values can stand only once.

Legend:
Aβ5-42 fibrils = biological target: T1, Aβ5-42 fibrils (Homo sapiens (species , …, UniProt P05067)); experiment: far-Western, overlay or dot blot; immunodot blot: fibrils of Aβ1-42 and N-terminal truncations spotted on nitrocellulose at equal Thioflavin T fluorescence; antibodies at 10 nM in PBST with 1% milk; anti-human Fc HRP, 3 min exposure; settings: both partners purified
T1 construct: amyloid beta peptide with N-terminal deletion, Aβ5-42; Amyloid fibrils; source: synthetic peptide, bought: Bachem; assembled into fibrils, purified by ultracentrifugation

Aβ4-42 fibrils = biological target: T2, Aβ4-42 fibrils (Homo sapiens (species , …, UniProt P05067)); experiment: as above; settings: both partners purified
T2 construct: amyloid beta peptide with N-terminal deletion, Aβ4-42; Amyloid fibrils; source: synthetic peptide, bought: Bachem; assembled into fibrils, purified by ultracentrifugation

Aβ3-42 fibrils = biological target: T3, Aβ3-42 fibrils (Homo sapiens (species , …, UniProt P05067)); experiment: as above; settings: both partners purified
T3 construct: amyloid beta peptide with N-terminal deletion, Aβ3-42; Amyloid fibrils; also called fibrils without the first two residues; source: synthetic peptide, bought: Bachem; assembled into fibrils, purified by ultracentrifugation

Aβ2-42 fibrils = biological target: T4, Aβ2-42 fibrils (Homo sapiens (species , …, UniProt P05067)); experiment: as above; settings: both partners purified
T4 construct: amyloid beta peptide with N-terminal deletion, Aβ2-42; Amyloid fibrils; also called fibrils without the first residue; source: synthetic peptide, bought: Bachem; assembled into fibrils, purified by ultracentrifugation

Aβ11-42 fibrils = biological target: T5, Aβ11-42 fibrils (Homo sapiens (species , …, UniProt P05067)); experiment: as above; settings: both partners purified
T5 construct: amyloid beta peptide with N-terminal deletion, Aβ11-42; Amyloid fibrils; source: synthetic peptide, bought: Anaspec; assembled into fibrils, purified by ultracentrifugation
T5 chain: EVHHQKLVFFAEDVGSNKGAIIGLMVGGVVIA

Aβ1-42 fibrils [1] = biological target: T6, Aβ1-42 fibrils (Homo sapiens (species , …, UniProt P05067, biotin on 1% of the peptides in the fibrils for the bead assays; unlabeled fibrils on the blots); experiment: flow cytometry on beads; Aβ fibrils (1% biotinylated, 1 μM) immobilised on streptavidin Dynabeads, blocked with 10% milk; antibody dilutions in PBSB with 1% milk, 3 h, 25 °C; detected with goat anti-human Fc AF647; apparent affinity (EC50); settings: both partners purified
T6 construct: amyloid beta peptide 1-42 (Aβ1-42), cut product of the amyloid precursor protein; also called Aβ fibrils; Aβ42 fibrils; source: synthetic peptide, bought: Anaspec; assembled into fibrils at 37 °C with 10% fibril seeds, purified by ultracentrifugation

Aβ1-42 fibrils [2] = biological target: T6, Aβ1-42 fibrils; experiment: far-Western, overlay or dot blot; immunodot blot: disaggregated Aβ and fibrils of Aβ, IAPP and α-synuclein spotted on nitrocellulose; antibodies at 10 nM in PBST with 1% milk, room temperature, 3 h; anti-human Fc HRP, X-ray film, 30 s or 45 min exposure; settings: both partners purified
disaggregated Aβ1-42 = biological target: T7, disaggregated Aβ1-42 (Homo sapiens (species , …, UniProt P05067)); experiment: as above; settings: both partners purified
T7 construct: amyloid beta peptide 1-42 (Aβ1-42), cut product of the amyloid precursor protein; also called disaggregated (D) Aβ; disaggregated Aβ42; source: synthetic peptide, bought: Anaspec; dissolved in HFIP, then 50 mM NaOH, ultracentrifuged, neutralised

[3] = biological target: T8, Aβ aggregates formed in vivo in 5xFAD transgenic mouse brain (human); experiment: far-Western, overlay or dot blot; immunodot blot: brain extracts (7 μg total protein) of 5xFAD and wild-type mice spotted on nitrocellulose; antibodies at 50 nM in TBST with 1% milk, overnight, 4 °C; settings: one partner purified
T8 construct: Aβ derived from human amyloid precursor protein (APP) expressed in 5xFAD mice; the APP transgene carries the Swedish (K670N/M671L), Florida (I716V) and London (V717I) mutations; The target stands in a brain homogenate or tissue section, not as a pure peptide; also called 5xFAD samples; Aβ plaques

B1: crenezumab (variable domains grafted onto an IgG1 scaffold with a human Fc fragment) (antibody, V domains shown)
VH: EVQLVESGGGLVQPGGSLRLSCAASGFTFSSYGMSWVRQAPGKGLELVASINSNGGSTYYPDSVKGRFTISRDNAKNSLYLQMNSLRAEDTAVYYCASGDYWGQGTTVTVSS
VL: DIVMTQSPLSLPVTPGEPASISCRSSQSLVYSNGDTYLHWYLQKPGQSPQLLIYKVSNRFSGVPDRFSGSGSGTDFTLKISRVEAEDVGVYYCSQSTHVPWTFGQGTKVEIK
notes: heavy-chain variable domain of crenezumab; light-chain variable domain of crenezumab; IgG1 here; source: HEK293-6E expression plasmids, transfected cells, purified from the medium (Protein A)
Aβ5-42 fibrils
  binding result: binds
Aβ4-42 fibrils
  binding result: binds
Aβ3-42 fibrils
  binding result: binds
Aβ2-42 fibrils
  binding result: binds
Aβ11-42 fibrils
  binding result: binds

B2: AF1 (scFv, V domains shown)
VH: EVQLVESGGGLVQPGGSLRLSCAASGFNIKDTYIHWVRQAPGKGLEWVARIYPTNGYTRYADSVKGRFTISADTSKNTAYLQMNSLRAEDTAVYYCARDGYDGSYFVGYDYNDFYDYWGQGTLVTVSS
VL: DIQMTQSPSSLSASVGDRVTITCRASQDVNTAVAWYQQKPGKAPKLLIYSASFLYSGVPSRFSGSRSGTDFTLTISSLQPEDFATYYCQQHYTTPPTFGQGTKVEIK
notes: scFv-Fc fusion protein; also called lead antibody; parental antibody; source: HEK293-6E expression plasmids, transfected cells, purified from the medium (Protein A)
Aβ1-42 fibrils [1]
  EC50: 99 nM

B3: clone 97 (scFv, V domains shown)
VH: EVQLVESGGGLVQPGGSLRLSCAASGFNIKDTYIHWVRQAPGKGLEWVARIYPASGATRYADSVKGRFTISADTSKNTAYLQMNSLRAEDTAVYYCARDGYDGSYFVGYDYNDFYDYWGQGTLVTVSS
VL: DIQMTQSPSSLSASVGDRVTITCRASQNVAYAVTWYQQKPGKAPKLLIYSASFLYSGVPSRFSGSRSGTDFTLTISSLQPEDFATYYCQQHSTYPPTFGQGTKVEIK
notes: scFv-Fc fusion protein; Parent of 97A3; source: HEK293-6E expression plasmids, transfected cells, purified from the medium (Protein A)
Aβ1-42 fibrils [1]
  EC50: 8 nM and 18 nM

B4: clone 93 (scFv, V domains shown)
VH: EVQLVESGGGLVQPGGSLRLSCAASGFNIKDTYIHWVRQAPGKGLEWVARIYPSNGYTRYAGSVKGRFTISADTSKNTAYLQMNSLRAEDTAVYYCARDGYDGSYFVGYDYNDFYDYWGQGTLVTVSS
VL: DIQMTQSPSSLSASVGDRVTITCRASQNVYNAVTWYQQKPGKAPKLLIYSASFLYSGVPSRFSGSRSGTDFTLTISSLQPEDFATYYCQQHNTYPPTFGQGTKVEIK
notes: scFv-Fc fusion protein; source: HEK293-6E expression plasmids, transfected cells, purified from the medium (Protein A)
Aβ1-42 fibrils [2]
  binding result: binds
Disaggregated Aβ1-42
  binding result: binds
[3]
  binding result: binds
